Measurements as given in patent US6835382B2, “Ii peptide therapeutics to enhance antigen presentation” (University of Massachusetts, priority 1996, dated 2004).

Tests used:
[1] = molecular target: T1, murine A^k MHC class II allele (Mus musculus, UniProt P01910+P06343); assay: simultaneous assay, A^k allele (CH27 APC, 3A9 T hybridoma, HEL46-61); format: cell-based; details: Table 2; for Times Baseline Response, A^k: AE peptide 64 μM, 0.05 μM HEL46-61, supernatant 1:2; for activity in simultaneous assay in the A^k system, in words: 64 μM
T1 construct: The A20 and CH27 B cell lymphoma lines express H-2^d and H-2^k alleles, respectively; endogenous in cells; host or cells: CH27 B cell lymphoma (mitomycin C-treated)
T1 sequence (P01910 24-256): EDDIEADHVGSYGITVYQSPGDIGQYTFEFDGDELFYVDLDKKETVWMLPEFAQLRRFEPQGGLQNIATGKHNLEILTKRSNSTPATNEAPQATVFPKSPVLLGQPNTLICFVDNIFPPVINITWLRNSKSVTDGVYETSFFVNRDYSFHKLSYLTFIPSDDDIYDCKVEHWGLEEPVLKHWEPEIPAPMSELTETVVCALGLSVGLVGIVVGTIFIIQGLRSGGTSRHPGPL
T1 sequence (P06343 28-263): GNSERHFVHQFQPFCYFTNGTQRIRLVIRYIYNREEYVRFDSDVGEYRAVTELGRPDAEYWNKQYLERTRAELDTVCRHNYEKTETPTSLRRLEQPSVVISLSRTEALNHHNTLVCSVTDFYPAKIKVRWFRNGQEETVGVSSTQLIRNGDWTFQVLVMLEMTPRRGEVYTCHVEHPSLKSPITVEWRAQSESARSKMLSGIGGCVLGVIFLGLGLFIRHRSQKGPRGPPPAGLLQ
Experimental: (§1) In the “simultaneous assay” the four components of the assay are cultured together for a 24 h period. The components of this primary culture, added at the same time or simultaneously, are: (a) the antigenic peptide, (b) mitomycin C-treated, MHC class II-positive antigen presenting cells (APC) with the MHC class II allele required for binding of the specific antigenic peptide and its presentation to the antigenic peptide-specific T cell hybridoma, (c) an AE101 series effector peptide, and (d) MHC class II allele-restricted T cell hybridoma specific for the antigenic peptide and the MHC class II allele restricting its presentation. At the end of the incubation of this primary culture, an aliquot of its supernatant is transferred into a second culture well for incubation with an interleukin-dependent lymphoblastoid cell line. The degree of stimulation of that second, indicator cell by the interleukins which had been released from the activated T cell hybridoma in the primary culture is measured by quantitating tritiated thymidine deoxyribose {[^3H]TdR} uptake into the DNA of the HT-2 indicator cells of that second culture.
(§2) For these various assays, the following antigenic peptides were used: HEL11-25, hen egg lysozyme 11-25, AMKRHGLDNYRGYSL(A^d) (SEQ ID NO:5); HEL46-61, hen egg lysozyme 46-61, NTDGSTDYGILQINSR(Ak) (SEQ ID NO:6); HEL106-116, hen egg lysozyme 106-116, NAWVAWRNRCK (E^d) (SEQ ID NO:7); PGCC81-104, pigeon cytochrome c 81-104, […] (Ek) (SEQ ID NO:8), and THMCC82-103, tobacco hornworm moth cytochrome c 82-103, […] (Ek) (SEQ ID NO:9). AE101 series peptides were obtained from commercial sources. In general, the purity and composition of each peptide was confirmed by HPLC separation and mass spectrometry. The native protein antigens were HEL, hen egg lysozyme, and PGCC, pigeon cytochrome C. They were obtained from commercial sources.
(§3) For the experiments of these Examples, several T cell hybridomas, which are specific for certain antigenic peptides, were used. The TPc9.1 T hybridoma is specific for pigeon cytochrome C 81-104 peptide presented on the murine class II MHC allele E^k. The TPc9.1 hybridoma responds heteroclitically to tobacco hornworm moth cytochrome c 82-103 on E^k. The 3A9 T hybridoma is specific for hen egg lysozyme 46-61 on A^k. The 9.30.B2 hybridoma is specific for hen egg lysozyme 11-25 on A^d, and the G28.C9 hybridoma is specific for hen egg lysozyme 106-116 on E^d. The A20 and CH27 B cell lymphoma lines express H-2^d and H-2^k alleles, respectively.
(§4) Antigenic peptide-specific T cell activation was measured by the following procedure. Mitomycin C-treated A20 cells (A^dE^d) or CH27 cells APC (A^kE^k) were generated by incubating 5×10^6 cells/mL for 20 min at 37° C. with 0.025 mg/mL of mitomycin C (Sigma) in Dulbecco's Modified Eaglel's Medium (DMEM)/10 mM N-2(hydroxyethylpiperazine-N″[2-ethanesulfonic acid] (HEPES), followed by two washes with four volumes of DMEM-5% fetal calf serum (FCS), 10 mM HEPES. Fixed APC were generated by treating 1×10^6 cells/mL for 5 min with 0.5% paraformaldehyde in PBS (pH 7.2), followed by two washes with four volumes of DMEM-10% FCS, 10 mM HEPES. T cell hybridomas were irradiated 2200 rads before each assay.
(§5) For the “simultaneous assay”, 5×10^4 mitomycin C-treated APC, 5×10^4 T hybridoma cells and a submaximal concentration of antigenic peptide were cultured with and without serial 4-fold dilutions of each AE101 series peptide, usually at 64 μM, 16 μM, 4 μM, and 1 μM, at pH 7.2-7.4, in complete DMEM-5% FCS, 10 mM HEPES, 1×nonessential amino acids (Sigma), 1 mM sodium pyruvate, 2 mM L-glutamine, 100 U/mL penicillin G, 100 μg/mL streptomycin sulfate, 5×10^−5 M 2-mercaptoethanol (2-ME). Wells containing only T hybridoma cells (T)+APC were included to monitor for background T cell activation; and wells containing T+APC+AE101 series peptide were included to monitor for non-specific T hybridoma activation by each AE101 series peptide. […]

[2] = molecular target: T2, murine A^d MHC class II allele (Mus musculus, UniProt P01921+P04228); assay: simultaneous assay, A^d allele (A20 APC, 9.30.B2 T hybridoma, HEL11-25); format: cell-based; details: Table 2; for Times Baseline Response, A^d: AE peptide 64 μM, 0.05 μM HEL11-25, supernatant 1:2
T2 construct: The A20 and CH27 B cell lymphoma lines express H-2^d and H-2^k alleles, respectively; endogenous in cells; host or cells: A20 B cell lymphoma (mitomycin C-treated)
T2 sequence (P04228 24-256): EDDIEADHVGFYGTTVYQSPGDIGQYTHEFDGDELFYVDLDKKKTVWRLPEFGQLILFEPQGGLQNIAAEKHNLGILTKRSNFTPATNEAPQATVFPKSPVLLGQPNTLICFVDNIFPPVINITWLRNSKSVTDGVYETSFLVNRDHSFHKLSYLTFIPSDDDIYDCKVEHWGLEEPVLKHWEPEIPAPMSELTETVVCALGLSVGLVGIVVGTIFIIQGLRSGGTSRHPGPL
T2 sequence (P01921 28-265): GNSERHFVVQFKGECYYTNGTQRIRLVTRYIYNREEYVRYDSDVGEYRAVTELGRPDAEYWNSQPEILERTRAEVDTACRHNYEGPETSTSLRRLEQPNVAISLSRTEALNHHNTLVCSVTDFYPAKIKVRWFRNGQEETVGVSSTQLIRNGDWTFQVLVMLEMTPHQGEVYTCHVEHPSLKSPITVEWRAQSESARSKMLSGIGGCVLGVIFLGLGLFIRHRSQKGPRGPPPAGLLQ
Experimental: as §1, §2, §3, §4, §5

| Substance | Times Baseline Response, A^k [1] | Times Baseline Response, A^d [2] | activity in simultaneous assay in the A^k system, in words [1] | activity in simultaneous assay in the A^d system, in words ([2]; 64 μM) |
| --- | --- | --- | --- | --- |
| Ac-SLRMKLPKSAK-NH2 [AE155] | 1.0 | 0.8 | – | – |
| Ac-NLQLDSLRMKLPKSAK-NH2 [AE150] | 0.0 | 1.0 | inhibitory | – |
| Ac-DSLRMKLPKSAK-NH2 [AE154] | 1.0 | 1.1 | – | – |
| Ac-QLDSLRMKLPKSAK-NH2 [AE152] | 0.5 | 0.9 | inhibitory | – |
| Ac-LDSLRMKLPKSAK-NH2 [AE153] | 1.0 | 1.2 | – | – |
| Ac-YRMKLPKSAK-NH2 [AE109] | 1.2 | 0.9 | – | – |
| Ac-LQLDSLRMKLPKSAK-NH2 [AE151] | 0.5 | 1.1 | inhibitory | – |
| Ac-LRMKLPKSAK-NH2 [AE110] | 0.8 | 0.7 | inactive | not active |
